Target: IL-12RB1-hFc (human, UniProt P42701)
Assay: SPR, 25C

| Kd [nM] | Binder |
| --- | --- |
| 0.03 | IL-12p70 Q43A (protein) chain 1: MIWELKKDVYVVELDWYPDAPGEMVVLTCDTPEEDGITWTLDASSEVLGSGKTLTIQVKEFGDAGQYTCHKGGEVLSHSLLLLHKKEDGIWSTDILKDQKEPKNKTFLRCEAKNYSGRFTCWWLTTISTDLTFSVKSSRGSSDPQGVTCGAATLSAERVRGDNKEYEYSVECQEDSACPAAEESLPIEVMVDAVHKLKYENYTSSFFIRDIIKPDPPKNLQLKPLKNSRQVEVSWEYPDTWSTPHSYFSLTFSVQVQGKSKREKKDRVFTDKTSATVICRKNASISVRAQDRYYSSSWSEWASVPCSGGGSHHHHHH chain 2: MRNLPVATPDPGMFPSLHHSQNLLRAVSNMLQKARQTLEFYPCTSEEIDHEDITKDKTSTVEACLPLELTKNESCLNSRETSFITNGSSLASRKTSFMMALCLSSIYEDLKMYQVEFKTMNAKLLMDPKRQIFLDQNMLAVIDELMQALNFNSETVPQKSSLEEPDFYKTKIKLCILLHAFRIRAVTIDRVMSYLNAS |
| 0.05 | IL-12p70 S44A (protein) chain 1: MIWELKKDVYVVELDWYPDAPGEMVVLTCDTPEEDGITWTLDQASEVLGSGKTLTIQVKEFGDAGQYTCHKGGEVLSHSLLLLHKKEDGIWSTDILKDQKEPKNKTFLRCEAKNYSGRFTCWWLTTISTDLTFSVKSSRGSSDPQGVTCGAATLSAERVRGDNKEYEYSVECQEDSACPAAEESLPIEVMVDAVHKLKYENYTSSFFIRDIIKPDPPKNLQLKPLKNSRQVEVSWEYPDTWSTPHSYFSLTFSVQVQGKSKREKKDRVFTDKTSATVICRKNASISVRAQDRYYSSSWSEWASVPCSGGGSHHHHHH chain 2: MRNLPVATPDPGMFPSLHHSQNLLRAVSNMLQKARQTLEFYPCTSEEIDHEDITKDKTSTVEACLPLELTKNESCLNSRETSFITNGSSLASRKTSFMMALCLSSIYEDLKMYQVEFKTMNAKLLMDPKRQIFLDQNMLAVIDELMQALNFNSETVPQKSSLEEPDFYKTKIKLCILLHAFRIRAVTIDRVMSYLNAS |
| 0.04 | IL-12p70 I278Y (protein) chain 1: MIWELKKDVYVVELDWYPDAPGEMVVLTCDTPEEDGITWTLDQSSEVLGSGKTLTIQVKEFGDAGQYTCHKGGEVLSHSLLLLHKKEDGIWSTDILKDQKEPKNKTFLRCEAKNYSGRFTCWWLTTISTDLTFSVKSSRGSSDPQGVTCGAATLSAERVRGDNKEYEYSVECQEDSACPAAEESLPIEVMVDAVHKLKYENYTSSFFIRDIIKPDPPKNLQLKPLKNSRQVEVSWEYPDTWSTPHSYFSLTFSVQVQGKSKREKKDRVFTDKTSATVYCRKNASISVRAQDRYYSSSWSEWASVPCSGGGSHHHHHH chain 2: MRNLPVATPDPGMFPSLHHSQNLLRAVSNMLQKARQTLEFYPCTSEEIDHEDITKDKTSTVEACLPLELTKNESCLNSRETSFITNGSSLASRKTSFMMALCLSSIYEDLKMYQVEFKTMNAKLLMDPKRQIFLDQNMLAVIDELMQALNFNSETVPQKSSLEEPDFYKTKIKLCILLHAFRIRAVTIDRVMSYLNAS |
| 0.11 | IL-12p70 E87K (protein) chain 1: MIWELKKDVYVVELDWYPDAPGEMVVLTCDTPEEDGITWTLDQSSEVLGSGKTLTIQVKEFGDAGQYTCHKGGEVLSHSLLLLHKKKDGIWSTDILKDQKEPKNKTFLRCEAKNYSGRFTCWWLTTISTDLTFSVKSSRGSSDPQGVTCGAATLSAERVRGDNKEYEYSVECQEDSACPAAEESLPIEVMVDAVHKLKYENYTSSFFIRDIIKPDPPKNLQLKPLKNSRQVEVSWEYPDTWSTPHSYFSLTFSVQVQGKSKREKKDRVFTDKTSATVICRKNASISVRAQDRYYSSSWSEWASVPCSGGGSHHHHHH chain 2: MRNLPVATPDPGMFPSLHHSQNLLRAVSNMLQKARQTLEFYPCTSEEIDHEDITKDKTSTVEACLPLELTKNESCLNSRETSFITNGSSLASRKTSFMMALCLSSIYEDLKMYQVEFKTMNAKLLMDPKRQIFLDQNMLAVIDELMQALNFNSETVPQKSSLEEPDFYKTKIKLCILLHAFRIRAVTIDRVMSYLNAS |

The next lines start with the binder.

| Binder | Kd [nM] |
| --- | --- |
| IL-12p70 D162A (protein) chain 1: MIWELKKDVYVVELDWYPDAPGEMVVLTCDTPEEDGITWTLDQSSEVLGSGKTLTIQVKEFGDAGQYTCHKGGEVLSHSLLLLHKKEDGIWSTDILKDQKEPKNKTFLRCEAKNYSGRFTCWWLTTISTDLTFSVKSSRGSSDPQGVTCGAATLSAERVRGANKEYEYSVECQEDSACPAAEESLPIEVMVDAVHKLKYENYTSSFFIRDIIKPDPPKNLQLKPLKNSRQVEVSWEYPDTWSTPHSYFSLTFSVQVQGKSKREKKDRVFTDKTSATVICRKNASISVRAQDRYYSSSWSEWASVPCSGGGSHHHHHH chain 2: MRNLPVATPDPGMFPSLHHSQNLLRAVSNMLQKARQTLEFYPCTSEEIDHEDITKDKTSTVEACLPLELTKNESCLNSRETSFITNGSSLASRKTSFMMALCLSSIYEDLKMYQVEFKTMNAKLLMDPKRQIFLDQNMLAVIDELMQALNFNSETVPQKSSLEEPDFYKTKIKLCILLHAFRIRAVTIDRVMSYLNAS | 0.05 |
| IL-12p70 D162K (protein) chain 1: MIWELKKDVYVVELDWYPDAPGEMVVLTCDTPEEDGITWTLDQSSEVLGSGKTLTIQVKEFGDAGQYTCHKGGEVLSHSLLLLHKKEDGIWSTDILKDQKEPKNKTFLRCEAKNYSGRFTCWWLTTISTDLTFSVKSSRGSSDPQGVTCGAATLSAERVRGKNKEYEYSVECQEDSACPAAEESLPIEVMVDAVHKLKYENYTSSFFIRDIIKPDPPKNLQLKPLKNSRQVEVSWEYPDTWSTPHSYFSLTFSVQVQGKSKREKKDRVFTDKTSATVICRKNASISVRAQDRYYSSSWSEWASVPCSGGGSHHHHHH chain 2: MRNLPVATPDPGMFPSLHHSQNLLRAVSNMLQKARQTLEFYPCTSEEIDHEDITKDKTSTVEACLPLELTKNESCLNSRETSFITNGSSLASRKTSFMMALCLSSIYEDLKMYQVEFKTMNAKLLMDPKRQIFLDQNMLAVIDELMQALNFNSETVPQKSSLEEPDFYKTKIKLCILLHAFRIRAVTIDRVMSYLNAS | 0.07 |
| IL-12p70 E87A (protein) chain 1: MIWELKKDVYVVELDWYPDAPGEMVVLTCDTPEEDGITWTLDQSSEVLGSGKTLTIQVKEFGDAGQYTCHKGGEVLSHSLLLLHKKADGIWSTDILKDQKEPKNKTFLRCEAKNYSGRFTCWWLTTISTDLTFSVKSSRGSSDPQGVTCGAATLSAERVRGDNKEYEYSVECQEDSACPAAEESLPIEVMVDAVHKLKYENYTSSFFIRDIIKPDPPKNLQLKPLKNSRQVEVSWEYPDTWSTPHSYFSLTFSVQVQGKSKREKKDRVFTDKTSATVICRKNASISVRAQDRYYSSSWSEWASVPCSGGGSHHHHHH chain 2: MRNLPVATPDPGMFPSLHHSQNLLRAVSNMLQKARQTLEFYPCTSEEIDHEDITKDKTSTVEACLPLELTKNESCLNSRETSFITNGSSLASRKTSFMMALCLSSIYEDLKMYQVEFKTMNAKLLMDPKRQIFLDQNMLAVIDELMQALNFNSETVPQKSSLEEPDFYKTKIKLCILLHAFRIRAVTIDRVMSYLNAS | 0.04 |
| IL-12p70 D42A (protein) chain 1: MIWELKKDVYVVELDWYPDAPGEMVVLTCDTPEEDGITWTLAQSSEVLGSGKTLTIQVKEFGDAGQYTCHKGGEVLSHSLLLLHKKEDGIWSTDILKDQKEPKNKTFLRCEAKNYSGRFTCWWLTTISTDLTFSVKSSRGSSDPQGVTCGAATLSAERVRGDNKEYEYSVECQEDSACPAAEESLPIEVMVDAVHKLKYENYTSSFFIRDIIKPDPPKNLQLKPLKNSRQVEVSWEYPDTWSTPHSYFSLTFSVQVQGKSKREKKDRVFTDKTSATVICRKNASISVRAQDRYYSSSWSEWASVPCSGGGSHHHHHH chain 2: MRNLPVATPDPGMFPSLHHSQNLLRAVSNMLQKARQTLEFYPCTSEEIDHEDITKDKTSTVEACLPLELTKNESCLNSRETSFITNGSSLASRKTSFMMALCLSSIYEDLKMYQVEFKTMNAKLLMDPKRQIFLDQNMLAVIDELMQALNFNSETVPQKSSLEEPDFYKTKIKLCILLHAFRIRAVTIDRVMSYLNAS | 0.07 |
